Measured values published in patent publication US20210346432A1 (Memorial Sloan Kettering, published 2021).
No end group written: not given here. *: point of attachment. Biotin = O=C1N[C@H]2[C@H](CS[C@H]2CCCCC(=O)*)N1

T1: ET140-p24 (human, cysteine pairing not given here)
T1 construct: also called peptide 24
T1 peptide: Biotin-SGSGQLRCSSNTPPLTCQR

T2: ET140-p36 (human, cysteine pairing not given here)
T2 construct: also called peptide 36
T2 peptide: Biotin-SGSGCQRYCNASVTNSVKG

T3: ET140-p7 (human, cysteine pairing not given here)
T3 construct: also called peptide 7
T3 peptide: Biotin-SGSGCSQNEYFDSLLHACI

T4: ET140-p3 (human)
T4 construct: also called peptide 3
T4 peptide: Biotin-SGSGMAGQCSQNEYFDSLL

T5: ET140-p23 (human, cysteine pairing not given here)
T5 construct: also called peptide 23
T5 peptide: Biotin-SGSGCQLRCSSNTPPLTCQ

T6: ET140-p16 (human, cysteine pairing not given here)
T6 construct: also called peptide 16
T6 peptide: Biotin-SGSGLLHACIPCQLRCSSN

T7: ET140-p19 (human, cysteine pairing not given here)
T7 construct: also called peptide 19
T7 peptide: Biotin-SGSGACIPCQLRCSSNTPP

T8: ET140-p39 (human)
T8 construct: also called peptide 39
T8 peptide: Biotin-SGSGYCNASVTNSVKGTNA

T9: ET140-p21 (human, cysteine pairing not given here)
T9 construct: also called peptide 21
T9 peptide: Biotin-SGSGIPCQLRCSSNTPPLT

T10: ET140-p10 (human, cysteine pairing not given here)
T10 construct: also called peptide 10
T10 peptide: Biotin-SGSGNEYFDSLLHACIPCQ

T11: ET140-p9 (human, cysteine pairing not given here)
T11 construct: also called peptide 9
T11 peptide: Biotin-SGSGQNEYFDSLLHACIPC

T12: ET140-p1 (human)
T12 construct: also called peptide 1; ET140-pl
T12 peptide: Biotin-SGSGLQMAGQCSQNEYFDS

T13: ET140-p14 (human, cysteine pairing not given here)
T13 construct: also called peptide 14
T13 peptide: Biotin-SGSGDSLLHACIPCQLRCS

T14: ET140-p22 (human, cysteine pairing not given here)
T14 construct: also called peptide 22
T14 peptide: Biotin-SGSGPCQLRCSSNTPPLTC

T15: ET140-p2 (human)
T15 construct: also called peptide 2
T15 peptide: Biotin-SGSGQMAGQCSQNEYFDSL

T16: ET140-p35 (human, cysteine pairing not given here)
T16 construct: also called peptide 35
T16 peptide: Biotin-SGSGTCQRYCNASVTNSVK

T17: ET140-p8 (human)
T17 construct: also called peptide 8
T17 peptide: Biotin-SGSGSQNEYFDSLLHACIP

T18: ET140-p34 (human, cysteine pairing not given here)
T18 construct: also called peptide 34
T18 peptide: Biotin-SGSGLTCQRYCNASVTNSV

T19: ET140-p17 (human, cysteine pairing not given here)
T19 construct: also called peptide 17
T19 peptide: Biotin-SGSGLHACIPCQLRCSSNT

T20: ET140-p12 (human, cysteine pairing not given here)
T20 construct: also called peptide 12
T20 peptide: Biotin-SGSGYFDSLLHACIPCQLR

T21: ET140-p15 (human, cysteine pairing not given here)
T21 construct: also called peptide 15
T21 peptide: Biotin-SGSGSLLHACIPCQLRCSS

T22: ET140-p13 (human, cysteine pairing not given here)
T22 construct: also called peptide 13
T22 peptide: Biotin-SGSGFDSLLHACIPCQLRC

T23: ET140-p32 (human, cysteine pairing not given here)
T23 construct: also called peptide 32
T23 peptide: Biotin-SGSGPPLTCQRYCNASVTN

T24: ET140-p20 (human, cysteine pairing not given here)
T24 construct: also called peptide 20
T24 peptide: Biotin-SGSGCIPCQLRCSSNTPPL

T25: ET140-p31 (human, cysteine pairing not given here)
T25 construct: also called peptide 31
T25 peptide: Biotin-SGSGTPPLTCQRYCNASVT


Tests used:
[1] = molecular target: T1, ET140-p24; experiment: peptide ELISA on streptavidin plate, antibody 1 ug/mL
Protocol: (§1) The peptides were coated onto Streptavidin plates at 2 ug/mL in PBST (PBS+0.05% Tween-20). After washing and blocking with 3% BSA. […] “mIgG1” used in all Examples represents that the variable region is fully human and the Fc part is mouse IgG1. Then HRP anti-mouse IgG detection antibody was added to each well. Finally, the color was developed using TMB substrate. A450 was recorded for data analysis.

[2] = molecular target: T2, ET140-p36; experiment: as above
Protocol: as §1

[3] = molecular target: T3, ET140-p7; experiment: as above
Protocol: as §1

[4] = molecular target: T4, ET140-p3; experiment: as above
Protocol: as §1

[5] = molecular target: T5, ET140-p23; experiment: as above
Protocol: as §1

[6] = molecular target: T6, ET140-p16; experiment: as above
Protocol: as §1

[7] = molecular target: T7, ET140-p19; experiment: as above
Protocol: as §1

[8] = molecular target: T8, ET140-p39; experiment: as above
Protocol: as §1

[9] = molecular target: T9, ET140-p21; experiment: as above
Protocol: as §1

[10] = molecular target: T10, ET140-p10; experiment: as above
Protocol: as §1

[11] = molecular target: T11, ET140-p9; experiment: as above
Protocol: as §1

[12] = molecular target: T12, ET140-p1; experiment: as above
Protocol: as §1

[13] = molecular target: T13, ET140-p14; experiment: as above
Protocol: as §1

[14] = molecular target: T14, ET140-p22; experiment: as above
Protocol: as §1

[15] = molecular target: T15, ET140-p2; experiment: as above
Protocol: as §1

[16] = molecular target: T16, ET140-p35; experiment: peptide ELISA, biotin peptide on streptavidin plate
Protocol: as §1

[17] = molecular target: T17, ET140-p8; experiment: as above
Protocol: as §1

[18] = molecular target: T18, ET140-p34; experiment: as above
Protocol: as §1

[19] = molecular target: T19, ET140-p17; experiment: as above
Protocol: as §1

[20] = molecular target: T20, ET140-p12; experiment: as above
Protocol: as §1

[21] = molecular target: T4, ET140-p3; experiment: as above
Protocol: as §1

[22] = molecular target: T5, ET140-p23; experiment: as above
Protocol: as §1

[23] = molecular target: T6, ET140-p16; experiment: as above
Protocol: as §1

[24] = molecular target: T21, ET140-p15; experiment: as above
Protocol: as §1

[25] = molecular target: T22, ET140-p13; experiment: as above
Protocol: as §1

[26] = molecular target: T7, ET140-p19; experiment: as above
Protocol: as §1

[27] = molecular target: T23, ET140-p32; experiment: as above
Protocol: as §1

[28] = molecular target: T24, ET140-p20; experiment: as above
Protocol: as §1

[29] = molecular target: T13, ET140-p14; experiment: as above
Protocol: as §1

[30] = molecular target: T25, ET140-p31; experiment: as above
Protocol: as §1

Binder | A450 [1] | A450 [2] | A450 [3] | A450 [4] | A450 [5] | A450 [6] | A450 [7] | A450 [8] | A450 [9] | A450 [10] | A450 [11] | A450 [12] | A450 [13] | A450 [14] | A450 [15] | binding result [16] | binding result [17] | binding result [18] | binding result [19] | binding result [20] | further results
ET140-153 mIgG1 (antibody, V domains shown, also called ET140-3 mIgG1; ET140-3) VH: QVQLVQSGAEVKKPGSSVKVSCKASGGTFSSYAISWVRQAPGQGLEWMGRIIPILGIANYAQKFQGRVTITADKSTSTAYMELSSLRSEDTAVYYCARGGYYSHDMWSEDWGQGTLVTVSS VL: LPVLTQPPSASGTPGQRVTISCSGRSSNIGSNSVNWYRQLPGAAPKLLIYSNNQRPPGVPVRFSGSKSGTSASLAISGLQSEDEATYYCATWDDNLNVHYVFGTGTKVTVLG | 0.382 | 0.089 | 0.381 | 0.086 | 0.113 | 0.266 | 0.098 | 0.072 | 0.089 | 0.758 | 2.25 | 0.084 | 0.124 | 0.131 | 0.076 |  |  |  |  |  | 
ET140-174 mIgG1 (antibody, V domains shown, also called ET140-24 mIgG1; ET140-24) VH: EVQLVQSGAEVKKPGESLKISCKGSGYSFTSYWIGWVRQMPGKGLEWMGIIYPGDSDTRYSPSFQGHVTISADKSISTAYLQWSSLKASDTAMYYCARYSGSFDNWGQGTLVTVSS VL: not shown | 0.357 | 0.084 | 0.087 | 0.08 | 0.109 | 0.231 | 0.104 | 0.071 | 0.086 | 0.115 | 0.104 | 0.084 | 0.105 | 0.098 | 0.079 | no binding (tested: 1 ug/mL) | no binding (tested: 1 ug/mL) | no binding (tested: 1 ug/mL) | no binding (tested: 1 ug/mL) | no binding (tested: 1 ug/mL) | binding result [21]: no binding (tested: 1 ug/mL); binding result [22]: no binding (tested: 1 ug/mL); binding result [23]: no binding (tested: 1 ug/mL); binding result [24]: no binding (tested: 1 ug/mL); binding result [25]: no binding (tested: 1 ug/mL); binding result [26]: no binding (tested: 1 ug/mL); binding result [27]: no binding (tested: 1 ug/mL); binding result [28]: no binding (tested: 1 ug/mL); binding result [29]: no binding (tested: 1 ug/mL); binding result [30]: no binding (tested: 1 ug/mL)
ET140-204 mIgG1 (antibody, V domains shown, also called ET140-54 mIgG1; ET140-54) VH: EVQLVQSGAEMKKPGASLKLSCKASGYTFIDYYVYWMRQAPGQGLESMGWINPNSGGTNYAQKFQGRVTMTRDTSISTAYMELSRLRSDDTAMYYCARSQRDGYMDYWGQGTLVTVSS VL: QSALTQPASVSASPGQSIAISCTGTSSDVGWYQQHPGKAPKLMIYEDSKRPSGVSNRFSGSKSGNTASLTISGLQAEDEADYYCSSNTRSSTLVFGGGTKLTVLG | 0.325 | 0.085 | 0.075 | 0.083 | 0.101 | 0.263 | 0.099 | 0.074 | 0.077 | 0.087 | 0.087 | 0.069 | 0.104 | 0.111 | 0.076 | no binding (tested: 1 ug/mL) | no binding (tested: 1 ug/mL) | no binding (tested: 1 ug/mL) | no binding (tested: 1 ug/mL) | no binding (tested: 1 ug/mL) | binding result [21]: no binding (tested: 1 ug/mL); binding result [22]: no binding (tested: 1 ug/mL); binding result [23]: no binding (tested: 1 ug/mL); binding result [24]: no binding (tested: 1 ug/mL); binding result [25]: no binding (tested: 1 ug/mL); binding result [26]: no binding (tested: 1 ug/mL); binding result [27]: no binding (tested: 1 ug/mL); binding result [28]: no binding (tested: 1 ug/mL); binding result [29]: no binding (tested: 1 ug/mL); binding result [30]: no binding (tested: 1 ug/mL)
